Experimental findings from patent publication US20210032331A1 (PHANES THERAPEUTICS, published 2021) are described below.

T1: human LAG-3(ECD)-huFc (human, UniProt P18627 23-450)
T1 construct: also called Fc-tagged human LAG-3(ECD)-huFc; not shown: human Fc (huFc) at the C-terminus
T1 sequence: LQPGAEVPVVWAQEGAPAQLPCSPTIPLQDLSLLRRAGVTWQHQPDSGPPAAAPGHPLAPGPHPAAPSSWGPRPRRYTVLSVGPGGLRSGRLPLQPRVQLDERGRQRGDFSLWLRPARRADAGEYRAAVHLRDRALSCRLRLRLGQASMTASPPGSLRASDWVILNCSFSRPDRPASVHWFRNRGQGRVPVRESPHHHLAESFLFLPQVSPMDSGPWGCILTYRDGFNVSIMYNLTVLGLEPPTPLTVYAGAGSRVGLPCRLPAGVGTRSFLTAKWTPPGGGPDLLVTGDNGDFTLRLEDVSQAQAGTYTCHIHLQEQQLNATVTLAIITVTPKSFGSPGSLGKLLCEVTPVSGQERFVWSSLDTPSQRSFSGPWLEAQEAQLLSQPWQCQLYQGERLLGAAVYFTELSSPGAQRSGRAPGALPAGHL

B1: B7 (antibody, V domains shown)
VH: EFQLQQSGPELVKPGASVKISCKASGYSFSDYNLNWVKQSNGKTLEWIGLINLDSAATVYNQKFKGKATLTIDQSSTTAYMQLNSLTSDDSAVYYCASYDYWGQGTTLTVSS
VL: DIQMTQSPSSLSASLGERVSLSCRASQDISHYLNWFQQKPDGTFKRLIYETSTLDFGVPKRFSGSRSGSDYSLTIGSLESEDFADYYCLQYATYPLTFGAGTKLELK
notes: Mouse mAb from hybridoma; also called mouse anti-LAG-3 mAb B7
B2: B10 (antibody, V domains shown)
VH: EFQLQQSGPELVKPGASVKISCKASGYSFTDYNLNWVKESNGKSLEWIGLITLDYGTTIYNQKFKGKATLTVDQSSSIAYMQLNSLTSDDSAVYYCACYDYWGQGTTLTVSS
VL: B1 VL with S22T, H31N, E50A, G76S, T93S
notes: Mouse mAb from hybridoma; also called mouse anti-LAG-3 mAb B10
B3: B11 (antibody, V domains shown)
VH: EVQLQQSGPVLVRPGASVKMSCKASGYTFTNYYMNWVKQSHGKSLEWIGVINPYNGDIAYSQKFKGKATLTVDKSSSTAYMELKSLTSEDSAVYYCARDDGYYVYYFDCWGQGTTLTVSS
VL: DIQMTQSPSSLSASLGERVSLTCRASQDIGGSLNWLQQKPDGTIKRLIYSTSTLDSGVPKRFSGSRSGSDYSLTISSLESEDFADYYCLQNANSPPTFGGGTKLEIK
notes: Mouse mAb from hybridoma; also called mouse anti-LAG-3 mAb B11
B4: B2 (antibody, V domains shown)
VH: QVHLQQSGPQLVKPGASVKISCKASGYTFTDYYINWVKQRPGQGLEWIGWIFPGSGSTYYNEKFKGKATLTVDKSSSTAYMLLSSLTSEDSAVYFCVRIHFDYDWFFDVWGTGTTVTVSS
VL: DVVMTQTPLSLPVSLGDQASISCRSSQSIVHSNGNTYFYWYLQKPGQSPNLLIYRVSNRFSGVPDRFSGSGSGTDFTLKISRVEAEDMGVYYCFQGTHVPYTFGGGTKLEIK
notes: Mouse mAb from hybridoma; also called mouse anti-LAG-3 mAb B2

Changes are numbered by the printed parent chain.

Broadly, the Kd is the equilibrium constant for the complex coming apart. A lower Kd goes with tighter binding.

The first assay concerns the target T1, human LAG-3(ECD)-huFc. The assay can be described thus: SPR (Biacore): mAb from hybridoma supernatant captured on anti-mouse IgG CM5 chip, human LAG-3(ECD)-huFc 50-400 nM injected. How it is done: Anti-mouse IgG antibodies were immobilized via amine coupling on CM5 chip surface. Anti-LAG-3 mAbs in hybridoma supernatants were captured on the chip surface and a series of concentrations (50-400 nM) of human LAG-3(ECD)-huFc protein were injected and passed through the captured surface. The on and off rates for antibody-antigen binding were measured, curve fitted and calculated.
With B1, the Kd came to 0.758 nM.

Consider B2, for which the Kd amounted to 1.1 nM.

With B3, the Kd turned out to be 1.18 nM.

B4 returned an equilibrium dissociation constant (Kd) of 4.09 nM.

The next assay concerns the target T2, B3C.
T2 construct: Chimeric: mouse VH and VL fused to constant regions of human IgG1 heavy chain and kappa light chain; also called the chimeric version of mouse mAb B3; B3 (human IgG1 heavy chain and kappa light chain chimeric)
The assay can be described thus: ELISA peptide competition: peptide (1X, 10X, 50X) preincubated with chimeric IgG1 B3, competitor hLAG3-mFc; capture on anti-human IgG, anti-mouse IgG-HRP. As to the method: (§1) Then human LAG-3 extracellular domain (ECD) fused to mouse Fc (hLAG3-mFc) was added (the final peptide concentration was 600-fold that of hLAG3-mFc) and the mixture was incubated for 60 minutes before being added to an ELISA plate coated with anti-human IgG. The incubation was carried out at 4° C. overnight. After washing, the hLAG3-mFc bound to the immobilized B5/IgG4 on the ELISA plate was detected by adding anti-mouse IgG conjugated to horseradish peroxidase (HRP) and incubating for 60 minutes. Then, after washing, the ELISA was developed using One-step Detection Solution and measured as the absorbance at 450 nm.
(§2) FIGS. 9A-9B show the effect of competition peptides on LAG-3 binding to anti-LAG-3 mAbs.
(§3) Anti-human IgG in carbonate coating buffer was coated on an ELISA plate at 4° C. (50 μL/well at 1 μg/mL) overnight. In each well of a separate plate, a chimeric version of a given anti-LAG-3 mAb (50 μL/well at 1.4 nM) and a competition peptide (50 μL/well at various concentrations as indicated in the figures) were mixed and incubated for 30 minutes at room temperature. Then human LAG-3 extracellular domain (ECD) fused to mouse Fc (hLAG3-mFc) was added to each well (50 μL/well at 2 nM) and the final mixture was incubated at room temperature for 60 minutes before added to the ELISA plate (50 μL/well) for another 60-minute incubation. The final incubation after adding the mixture to the ELISA plate was also performed at 4° C. overnight in some assays.
(In general: In an ELISA, binding on a coated surface is turned into a signal by an enzyme label.)
With PGHPLAPGPHPAAPSSW (also called peptide 7-23) [7-23], the binding result is “binds”.

For LAPGPHPAAPSSWG (also called peptide 11-24) [11-24], the binding result is listed as “binds”.

For the molecule APGPHPAAPSSWG (also called peptide 12-24) [12-24], the binding result was “binds”.

Consider PHPAAPSSWGPRPRRY (also called peptide 15-30) [15-30], for which the binding result is listed as “binds”.

In the case of PGHPLAPGPHPAAPSS (also called peptide 7-22) [7-22], the binding result is “no binding (tested: 50X peptide)”.

In the case of HPAAPSSWGPRPRRY (also called peptide 16-30) [16-30], the binding result is given as “binds”.

In the case of PGPHPAAPSSWG (also called peptide 13-24) [13-24], the binding result is “binds”.

With GPHPAAPSSWG (also called peptide 14-24) [14-24], the binding result was “binds”.

For another assay, the target named is T3, B4C.
T3 construct: Chimeric: mouse VH and VL fused to constant regions of human IgG1 heavy chain and kappa light chain; also called the chimeric version of mouse mAb B4; B4 (human IgG1 heavy chain and kappa light chain chimeric)
The assay can be described thus: ELISA peptide competition: peptide (1X, 10X, 50X) preincubated with chimeric IgG1 B4, competitor hLAG3-mFc; capture on anti-human IgG, anti-mouse IgG-HRP. How it is done: as §1, §2, §3
As for PGHPLAPGPHPAAPSSW (also called peptide 7-23) [7-23], the binding result is “binds”.

On to LAPGPHPAAPSSWG (also called peptide 11-24) [11-24], for which the binding result is on record as “binds”.

In the case of APGPHPAAPSSWG (also called peptide 12-24) [12-24], the binding result is recorded as “binds”.

Consider PHPAAPSSWGPRPRRY (also called peptide 15-30) [15-30], for which the binding result is “binds”.

For PGHPLAPGPHPAAPSS (also called peptide 7-22) [7-22], the binding result was “no binding (tested: 50X peptide)”.

Consider HPAAPSSWGPRPRRY (also called peptide 16-30) [16-30], for which the binding result is on record as “binds”.

Turning to PGPHPAAPSSWG (also called peptide 13-24) [13-24], the binding result is listed as “binds”.

With GPHPAAPSSWG (also called peptide 14-24) [14-24], the binding result is given as “binds”.

For a further assay, the target named is T4, B5/IgG4.
T4 construct: Chimeric: mouse VH and VL with human IgG4 heavy chain and kappa light chain constant regions; also called B5 (human IgG4 heavy chain and kappa light chain chimeric)
T4 sequence (VH, as listed by the source, chain 1 of 2): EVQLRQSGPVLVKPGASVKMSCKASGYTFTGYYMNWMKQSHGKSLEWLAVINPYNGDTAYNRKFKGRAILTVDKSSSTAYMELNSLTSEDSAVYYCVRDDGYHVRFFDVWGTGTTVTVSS
T4 sequence (VL, as listed by the source, chain 2 of 2): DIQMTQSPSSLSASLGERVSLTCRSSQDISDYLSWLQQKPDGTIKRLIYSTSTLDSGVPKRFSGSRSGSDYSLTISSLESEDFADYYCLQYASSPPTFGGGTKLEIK
The assay can be described thus: ELISA peptide competition: peptide preincubated with B5/IgG4, competitor hLAG3-mFc; peptide at 600-fold hLAG3-mFc; capture on anti-human IgG, anti-mouse IgG-HRP. As to the method:
as §1, with “FIGS. 5A-5D show the effect of competition peptides on LAG-3 binding to anti-LAG-3 mAbs. […] B5/IgG4 was preincubated with a competition peptide for 30 minutes. Then human” for “Then human”
as §3, with “assays. The plate was washed and the binding of hLAG3-mFc to the immobilized anti-LAG-3 mAb was detected by adding anti-mouse IgG conjugated to horseradish peroxidase ([…]) (ThermoFisher Scientific, Cat#: A16084; Waltham, Mass.) and incubating for 60 minutes.” for “assays.”
For GPPAAAPGHPLAPG (also called peptide 1-14) [1-14], the binding result was “binds”.

As to GPPAAAPGHPLAP (also called peptide 1-13) [1-13], the binding result is listed as “binds”.

The target in a further assay is T5, B12 (human IgG1 heavy chain and kappa light chain chimeric).
T5 construct: Chimeric: mouse VH and VL with human IgG1 heavy chain and kappa light chain constant regions
The assay can be described thus: ELISA peptide competition: peptide preincubated with chimeric IgG1 B12, competitor hLAG3-mFc; peptide at 600-fold hLAG3-mFc; capture on anti-human IgG, anti-mouse IgG-HRP. How it is done: as §1, with “FIGS. 5A-5D show the effect of competition peptides on LAG-3 binding to anti-LAG-3 mAbs. […] B5/IgG4 was preincubated with a competition peptide for 30 minutes. Then human” for “Then human”
as §3, with “assays. The plate was washed and the binding of hLAG3-mFc to the immobilized anti-LAG-3 mAb was detected by adding anti-mouse IgG conjugated to horseradish peroxidase ([…]) (ThermoFisher Scientific, Cat#: A16084; Waltham, Mass.) and incubating for 60 minutes.” for “assays.”
On to GPPAAAPGHPLAPG (also called peptide 1-14) [1-14], for which the binding result was “binds”.

The target of another assay is T6, BG29 (human IgG4 heavy chain and kappa light chain chimeric).
T6 construct: Chimeric: mouse VH and VL with human IgG4 heavy chain and kappa light chain constant regions; also called chimeric BG29
The assay can be described thus: ELISA peptide competition: peptide preincubated with chimeric IgG4 BG29, competitor hLAG3-mFc; peptide at 200-fold hLAG3-mFc; capture on anti-human IgG, anti-mouse IgG-HRP. As to the method: as §1, with “FIGS. 5A-5D show the effect of competition peptides on LAG-3 binding to anti-LAG-3 mAbs. […] B5/IgG4 was preincubated with a competition peptide for 30 minutes. Then human” for “Then human”
as §3, with “assays. The plate was washed and the binding of hLAG3-mFc to the immobilized anti-LAG-3 mAb was detected by adding anti-mouse IgG conjugated to horseradish peroxidase ([…]) (ThermoFisher Scientific, Cat#: A16084; Waltham, Mass.) and incubating for 60 minutes.” for “assays.”
Turning to GPPAAAPGHPLAPG (also called peptide 1-14) [1-14], the binding result is reported as “binds”.

Turning to GPPAAAPGHPLAP (also called peptide 1-13) [1-13], the binding result was “binds”.

A further assay deals with T7, B7/IgG4.
T7 construct: Chimeric: mouse VH and VL with human IgG4 heavy chain and kappa light chain constant regions; also called B7 (human IgG4 heavy chain and kappa light chain chimeric)
The assay can be described thus: ELISA peptide competition: peptide preincubated with B7/IgG4, competitor hLAG3-mFc; peptide at 600-fold hLAG3-mFc; final incubation 60 min at room temperature; anti-mouse IgG-HRP. As to the method:
as §1, with “B5/IgG4 was preincubated with a competition peptide for 30 minutes. Then human” for “Then human”
The assay condition is the same as in FIG. 5A except that the final incubation of the mAb, the competition peptide, and hLAG3-mFc on the ELISA plate was performed at room temperature for 60 minutes instead of incubation at 4° C. overnight.
as §3, with “incubation.” for “incubation. The final incubation after adding the mixture to the ELISA plate was also performed at 4° C. overnight in some assays.”
For the molecule PHPAAPSSWGPRPRRY (also called peptide 15-30) [15-30], the binding result is “binds”.

Take HPAAPSSWGPRPRRY (also called peptide 16-30) [16-30]: the binding result is listed as “binds”.
